In patent US20220332804A1 (CSL INNOVATION, published 2022):
Where a chain is given by its changes, count along the chain named.

Assays:
Assay in all cases: SPR, antibody captured, C2 as analyte;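 note: biacore SPR at 37 °C, anti-C2 mAbs captured via goat anti-human IgG on CM5 chips, double-referenced sensorgrams fit to a 1:1 kinetic or steady-state model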
human C2 R714A = target: T1, human C2 R714A (human, UniProt P06681 21-752)
T1 sequence: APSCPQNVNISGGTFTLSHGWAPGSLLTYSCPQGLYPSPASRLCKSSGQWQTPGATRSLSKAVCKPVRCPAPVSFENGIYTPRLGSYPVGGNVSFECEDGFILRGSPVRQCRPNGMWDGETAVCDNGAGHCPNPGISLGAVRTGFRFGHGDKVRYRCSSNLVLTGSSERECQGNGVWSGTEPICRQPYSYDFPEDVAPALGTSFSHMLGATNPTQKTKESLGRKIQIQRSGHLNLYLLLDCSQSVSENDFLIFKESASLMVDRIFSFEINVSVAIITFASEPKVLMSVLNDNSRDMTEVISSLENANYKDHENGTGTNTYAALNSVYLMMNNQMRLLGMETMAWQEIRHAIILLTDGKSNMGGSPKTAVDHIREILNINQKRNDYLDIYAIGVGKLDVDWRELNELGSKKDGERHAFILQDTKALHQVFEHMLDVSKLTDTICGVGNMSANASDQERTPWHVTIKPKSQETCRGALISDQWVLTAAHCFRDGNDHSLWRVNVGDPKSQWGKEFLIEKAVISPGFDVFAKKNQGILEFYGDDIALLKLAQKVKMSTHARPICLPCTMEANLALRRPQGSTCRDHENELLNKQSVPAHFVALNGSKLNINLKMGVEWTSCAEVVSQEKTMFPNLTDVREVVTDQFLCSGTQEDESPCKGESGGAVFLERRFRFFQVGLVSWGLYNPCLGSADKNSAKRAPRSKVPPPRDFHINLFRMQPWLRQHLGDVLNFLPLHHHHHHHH

human C2 D431A = target: T2, human C2 D431A (human, UniProt P06681 21-752)
T2 sequence: T1 sequence with D411A, A694R

human C2 S469A = target: T3, human C2 S469A (human, UniProt P06681 21-752)
T3 sequence: T1 sequence with S449A, A694R

human C2 K531A = target: T4, human C2 K531A (human, UniProt P06681 21-752)
T4 sequence: T1 sequence with K511A, A694R

B1: RF16-226 (antibody, human IgG4 S228P, lambda)
heavy: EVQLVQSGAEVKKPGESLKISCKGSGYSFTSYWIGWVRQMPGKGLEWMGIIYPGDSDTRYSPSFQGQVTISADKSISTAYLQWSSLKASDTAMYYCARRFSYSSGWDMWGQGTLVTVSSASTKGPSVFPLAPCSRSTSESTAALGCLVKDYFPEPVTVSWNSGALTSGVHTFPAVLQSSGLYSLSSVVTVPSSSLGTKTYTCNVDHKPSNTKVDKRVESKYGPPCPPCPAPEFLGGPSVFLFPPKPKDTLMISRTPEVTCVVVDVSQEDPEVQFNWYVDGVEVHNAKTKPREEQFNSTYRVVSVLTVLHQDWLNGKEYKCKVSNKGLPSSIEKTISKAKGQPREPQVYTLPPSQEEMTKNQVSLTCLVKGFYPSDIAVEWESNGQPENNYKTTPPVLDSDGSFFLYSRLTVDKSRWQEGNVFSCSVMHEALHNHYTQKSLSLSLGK
light: SYELTQPPSVSVSPGQTARITCSGDALTSKYVAWYQQKSGLAPLLVIYEDTRRPSGIPAKFSGSSSGSVATLTISGAHGDDEADYYCYSTDASGHQRVFGGGTKLTVLSQPKAAPSVTLFPPSSEELQANKATLVCLISDFYPGAVTVAWKADGSPVKAGVETTKPSKQSNNKYAASSYLSLTPEQWKSHRSYSCQVTHEGSTVEKTVAPTECS
notes: pH-dependent anti-C2 antibody from a phage display library; also called WT
Human C2 R714A
  Kd: 53 nM
Human C2 D431A
  Kd: 43.4 nM
Human C2 S469A
  Kd: 28.2 nM
Human C2 K531A
  Kd: 12.1 nM
